Experimental data: the nanobody polyreactivity screen of Harvey et al. (2022)

Experiment: yeast display, Sf9 membrane polyspecificity reagent, FACS + sequencing; frameworks hold sequencing errors
Outline: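 Using colony PCR, genes from sorted yeast display clones were amplified, then sequenced on MiSeq at 2 × 250 and filtered by CDR length. The clones had been stained with 10% biotinylated, detergent-solubilized Sf9 membrane reagent for 1 hour at 4 °C and sorted by FACS into low and high (top ~1%) gates on anti-HA and streptavidin fluorescence. Polyreactivity labels come from the gate of origin.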

Row | Sequence | polyreactivity (PSR sort gate)
1 | QDQLVESGGGLVQAGGSLRLSCAPSGFIFSNYAMGWYRHGPGKERELVAAISFTGSNTYYADSVKGRFTISRDYAKNTVYLKMNSLKPEDTAVYFCNAPLEWGVYAAQNWDEGYWGQGSQVTVSS | low polyreactivity
2 | QVQLVESGGGLVQAGGSLRLSCAASGSTFPHYTMGWYRQAPGKERELVAVISRSGRTYYADSVKGRFTISRDNAKNTVYLQMNSLKPEDTAVYYCAVLVGRLVWSYNHWGQGTQVTVSS | high polyreactivity
3 | QVQLVESGGGLVQAGGSLRLSCAASGITFYRNARGWYRQAPGNEMELVAAITWNGGRTYYADSVKGRVTISRDNAKNTVDLQMNSLKPEDTAVYDCAADSGTRNLASYRYYYWGQGTLVTVSS | low polyreactivity
4 | QVQLVESGGGLVQAGGSLRLSCAASGLTFVVYAMGWYRQAPGKERELVAAISSTGNTYYADSEKGRFTISRDNAKNTVYLQMNSLKPEDTAVYYCAAERSFYWYHFDYWGQGTQVTVSS | high polyreactivity
5 | QVQLVESGGGLVQAGGSLRLSSAASGSTIGGYAMGWYRQAPGKERELVAAITRSGGRTYYADSVKGRFTISRDNSKNTVYLQMNSLKPEDTAVYYCATLVTIGRYDSWGQGTQVTVSS | high polyreactivity
6 | QVQLVDSGGGLVQAGGSLRLSCAASGFIFGYYAMGWYRPAPGKERELVAAISQSTGSTYYADSVKGRFTISRDNAKNTVYLQMNSLKPEDTAVYYCNAEGPEFTTWGYVYWDWGYGYWGQGTQVTVSS | low polyreactivity
7 | QVQLVESGGGLVQAGGSLRLSCAASGRTLYFNAMGWYRQAPGKERALVADISIGGSTYSADSVKGRFTISRDNAKNTVYLQMNSLKPEDSAVYYCAANAHYYVSYAWSVDVDYWGQGTQVTVSS | high polyreactivity
8 | QVQLVESGGGLVQAGGSLRLSCAASGSIFYTNAMGWYRQAPGKERELVAAISISGSTYYADSVKGRFTISRDNAKNTVYLQMNSLKPEDTAVYYCAAGPGYVRYPRSGVWYVTLYDYWGQGTQVTVSS | high polyreactivity
9 | QVQLVESGGGLVQAGGSLRLSCAASGYTFSHYPMGWYRQAPGKERELVAGITWSGGSTYYADSVKGRFTISRDNAKNTVYLQMNSLKPEDTSVYYCAGKYYWYYSYSGIPLFDYWGQGTQVTVSS | low polyreactivity
10 | QFQLVESGGGLVQAGGRLRLSCAASGSIFYRNAMGWYRQAPGKERELVAAISASGGSTYYADSVKGRFTISRDNEKNTVYLQMIILKPEDTAVYYCDVEYRKSRSYAPMGYWGQGTQVTVSS | high polyreactivity
11 | QVQLVESGGGLVQAGGSLRLSCAASGRTFSFYAMGWYRQAPGKERELVAGIDWDDGSTSYADSVKGRFTISRDNAKNTVYLQMNSLKPEDTAVYYCAADIGYDVYNDYDYWGQGTQVTVSS | low polyreactivity
12 | QVQLVESGGGLVQAGGSLRLSCAASGSTFYVNAMGWYRQAPGKERELVASISSSSGSTYYADSVKGRFTISRDNAKNTVYLQMNSLKPEDTAVYYCAAEVGIFIWFDYWGQGTQVTVSS | low polyreactivity
13 | QVQLVESGGGLVQAGGSLRLSCAASGNTFYHYAMGWYRQAPGKERELVAAITWTGDSTYYADSVKGRFTISRDNAKNTVYLQMNSLKPEDTAVYYCNRVGYQSMNYWGQGTQVTVSS | low polyreactivity
14 | QVQLVESGGGLVQAGGSLSLSCAASGSIFWSYAMGWYRQAPGKERELVAAITTDGGTNYADSVKGRFTISRDNAKNTVYLQMNSLKPVDTAVYYCAADTDPKPRIDYTLRMDYWGHGTQVTVSS | low polyreactivity
15 | QVQLVESGGGLVQAGGSLRLSCAASGSTFGTNVMGWYRQAPGKERELVAAISGRGGRTYYADSVKGRFTISRDNAKNTVYLQMNSLKPEDTAVYYCAAPRYYSREYDYWGQGTQVTVSS | high polyreactivity
16 | QVQLVESGGGLVQAGGSLRLSCADSGIIFITNAMGWYRQAPGKERELVAAISSTVSTNYADSVKGRFTISRDNAKNTVYLQMNSLIQEDTAVYFCAAEWGLTQGESIYDFWGQGTQVTVSS | low polyreactivity
17 | QVQLVESGGGLVQAGGSLRLSCAASGSIFGYNVMGGDRQAPGKEREFVARINYIGSSTYYADSVKGRFTISRDNAKNTVYLQMNSLKPEDTADYYCNADNARGRSGVRRYYWGQGTQVTVSS | high polyreactivity
18 | QVQLVESGGGLVQAGGSLRLSCAASGRIFLYYTMGWYRQAPGKERELDAAITRSGGSTYYADSVKGRFTISRDNAKNTDYLQMNSLKPEDTAVYYCNRAYVRYVPMNYWGQGTQVTVSS | high polyreactivity
19 | QVQLVESGGGIVQAGGSLRLSCAASGRTFSIYAMGWYRQAPGKERELVASITNSDGSTYYADSVKGRFTISRDNAKNTVYLQMNSLKPEDTAVYYCNDDSGISRVKYGYWGQATQVTVSS | low polyreactivity
20 | QVQLVESGGGLVQAGGRLRLSCAASGFTFPLYTMGWYRQEPGKERELVAAITWSGGSTYADSLKGRFTISRDNAKNTVYLQMNSLNPEDTEVYYCNRRLQPRGAGHNSWGQGTQVTVSS | high polyreactivity

Row | Sequence | polyreactivity (PSR sort gate)
21 | QVQLVESGGGLVQAGGSLRLSCAASGSIFSYYAMGWSRQAPGKERELVAAISRSGTSTYYADSVKGRFTISRDNAKNTVSLQMNSLKPEVNAVDYCNARWGFSRHRLMGYWGQGTQVSVSS | high polyreactivity
22 | QVQLVESGGGLVQAGGSLRLSCAASGFTFPVNAMGWYRQAPGKERELVAAIRWIGGDTYYADSVKGRFTISRDNAKNPVYLQMNSLKPEDTAVYYCAAEDTDDYSIWYEYWGQGTQVTVSS | high polyreactivity
23 | QVQLEESGGGLVQAGGSLRLSCAASGFIFRYYAMGWYRQAPGKERELVAAISWSGGSTYYADSVKGRFTISRDNAKNTVYLQMNSLKPEETAVDYGAADRYAILFYAEDYWGQGTQVTVSS | low polyreactivity
24 | QVQLVESGGGLVQAGGSLRLSCAASGFTIYKYAMGWYRQPPGKERELVAAITGRGGSTNYADSVKGRFTISRDTAQNTVYLQMNILKPEDTAFYYCAARTPSYEMDYWGQGTQVTVSS | high polyreactivity
25 | QVQLVESGGGLVQAGGSLRLSCAASGYIVITYAMGRYRQAPGKERELVAAISRRGGRTYYADSVKGRFTISRDNAKNTVYLQMNSLKPEATAVYYCAADPATSVYGGLNYWGQGTQVTVSS | high polyreactivity
26 | QVQLVESGGGLVQAGGSLRLSCAASGSTFWSYTMGWYRQAPGKEREWVAAISRSGGSTYYADSVKGRFTISRDNAKNTVYLQLNSLKPEDTAVYYCAAADRYGSRYYYWGQGTQVTVSS | high polyreactivity
27 | QVHLVDSGGGLVQEGGSLRLSCGASGSTFQSYAMGWYRQSPGKERELVAVIDSGGRTYYADSVKGRFTISRDNAKNTVYLQINSLKPEDTAVYYCAARGPVGNGWRYRPWHDYWGQGTQVTVSS | high polyreactivity
28 | QVQLVESGGRLVQAGGSLRLSCAASGGIFTAYTMGWYRQAPGKESELVAVISSGGGRTYYADSVKGRFTISRDNAKNTVYLQMNSLKPEDTAVYYCNARVYVSANKYDYWGQGTQVTVSS | high polyreactivity
29 | QVQLVDSGGGLVQAGGSLRLSCDASGSIFYPYALGCYIQAPGKERELVAAITTSGGSTYYADSVKGRFTISRDNAKNTVYLQMNSLKPEATAVYYCSASYYSDIWPYSVYDLEFYWGQGTQVTVSS | high polyreactivity
30 | QVQLVESGGGLVQAGGSLRLSCAASGFTFGYYAMGWYRQAPGKERELVATITSSGASTYADSVKGRFTISRDNAKNTVYLQMNSLKPEDTAVYYCAADRLPSYWSWYGYDYWGQGTQVTVSS | high polyreactivity
31 | QVHLVESGGGLVQAGGSLRLSCAASGSIFGPYMGWYRQAPGKERELVASVVSTYYADSVKGRFTISRDNAKNTVYLQMNSLKPEYTAVYYCNTQDTKNKSSVFVPSDYWGQGTQVTVSS | low polyreactivity
32 | QVQHVESGVGLDQAGGSLRLSCAASGSIFYWNAMGWYRQAPGKEREFVATITITTSTNYADSVKGRFTISRDNAKNPVNLQMNSLKPEDTAVYYCNAGAPYRYLDEYNYWGQGTKVTVSS | low polyreactivity
33 | QVQLVESGGGLVQAGGSLRLSCAASGSTFGTYAMGWYRQAPGKERELVADITGSGGSTYYADSVKGRFTISRDNAKNTVYLQMNSLKPEDTAVYYCAAEYGLGDDTAYGYWGQGTQVTVSS | low polyreactivity
34 | QVHLVESGGGLVKAGGSLRLSCAASGSIFTWYAMGWYRQEPGKERELVAAITWRGGSTYYADSVKGRFTISRDNAKNTVYLQMNSLKPEDTAVYYCAAAGRSGKSLLQYGYWGQGTQVTVSS | high polyreactivity
35 | QVQLVESGLGLVQAGGSLRLSCAHSGSTLVYNDMRWYRQAPGKEREFVAAIRSNDGSTYYADSVNGRFTISRDNAKNTVYLQMNSLTPEDTAVYYCAATFSSAFAYYYWGQGTQVTVSS | low polyreactivity
36 | QVHLVESGGGLVQAGGSLRLSCAASGSTFYRYAMGWYRQAPGKEREFVAAISTRGGSTHYADSVKGRFTISRDNAKNTVYLQMNSLKPEDTAVSYCNARGYYSVPSNTGIRYYRFDYWGQGTQVTVSS | low polyreactivity
37 | QVQHVESGGGLLQAGGSLRLSCAASGGTFTPNVMGWYRQAPGKVRELVAAIDDSGSRTYYADSVKGRFTISRDYAKNTVYLQMNSLKPEDTAVYFCAVFWYGTYPMYYWGQGTQVTVSS | low polyreactivity
38 | QVQLVESGGGLVQAGGSLRLSCAASGSTFGVYARGWYRQAPGKERELVAAIRDRGGSTYYADSVKGRFTISRDNAKNTVYLQMNSLKPEDTAVYYCATRTWWEYYYWGQGTQVTVSS | high polyreactivity
39 | QVQLVESVGGLVQAGGSLRLSCAASGGIFWVYAMGWYRQAPGKERELVADISIADSTNYADSVKGRFTISRDNAKNTVYLQMNSLKPEDTAVYYCNAVPSQHDEFDYWGQGTQVTVSS | low polyreactivity
40 | QVHLVESGGGLVQAGGSLRLSCAASGSILGSNAMGWYRQAPGKERELVAAISSGGSTDYADSVKVRFTISRDNAKNTVYLQMYCLKPEDTAVYYCAAGFIYHYGLYKIYDYYYWGQGTQVTVSS | low polyreactivity
